The numbers were not newly measured in US20220259272A1, “PHOTOACTIVE COMPOSITIONS FOR T[…] DELIVERY” (The University of North Carolina at Chapel Hill, priority 2019, published 2022), which cites them from elsewhere.

The conditions of data set [1]: in vivo.
The conditions of data set [2]: 1 mg/kg, up to 100 mg.
The conditions of data set [3]: in vivo. The source holds these as a separate data set.

For “TF: protein that promotes blood clotting in the cascade activating thrombin”, the circulatory half-life in data set [1] is reported as under 1 min.

For “tPA: enzyme that activates plasminogen to generate plasmin, which dissolves the clot”, in data set [2], the “catastrophic intracerebral hemorrhage, share of patients” value is recorded as about 10%. Moreover, in data set [3], the circulatory lifetime is 5 min.
